Experimental data as given in the nanobody polyreactivity screen of Harvey et al. (2022).

Assay: yeast display, Sf9 membrane polyspecificity reagent, FACS + sequencing; frameworks hold sequencing errors
Method in brief: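 Synthetic nanobody libraries on Saccharomyces cerevisiae BJ5465 were galactose-induced for 36–48 hours, stained 1 hour at 4 °C with 10% biotinylated, detergent-solubilized Sf9 membrane reagent and enriched on streptavidin microbeads. FACS then separated cells into low and high (top ~1%) gates by anti-HA (expression) and streptavidin (reagent binding) fluorescence. Genes were colony-PCR amplified, MiSeq 2 × 250 sequenced and CDR-length filtered. A clone's polyreactivity label is that of its gate of origin.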

Sequence	polyreactivity (PSR sort gate)
QVQLVESGGGLVQAGGRLRLSCAASGSTCGPYTLGWYRQAPGTEREVVATISSGGSTYYADSVKWRFTISRDNAKNTVYLQMNSLKPEDTAVYFCNKDFFYLRTWRSVYEFEYWGQGTQVTVSS	low polyreactivity
QVQLVESGGGLVQAGGSLRLSCAASGSIFRYYTMGWDRQAPGKERELVAAISWSGGRTYYADSVKGRFTISRDNAKNTVYLQMNSLKPEDTAVYYCAAVRPYYYPLPTVPNLPYDYWGQGTQVTVSS	high polyreactivity
QVQLVESGRGLVQEGGSLRLSCAASGRNVVFYTMGWNRQEPVKERELVATISIRGSTYYADSVKGRFTISRDNAKNTVYLKMNSLKPEDTAVYYCAAVYYSYYSFSYNYWGQGTVVTVSS	low polyreactivity
QVQLVESGGGLVQAGGSLRLSCAASGSTLSFYAMGWYRQAPGKERELVAAISYSTGTTYYADSVKGRFTISRDNAKNTVYLQMNSLKPEDTAVYYCAVYWQHNSTRYYYWGQGTQVTVSS	high polyreactivity
QVQLVESGGGLVQAGGSLRLSCADSGSISRNAMGWYRQAPGKERELVAGISQSGGRTYYADSVKGRFTISRDNAKKTVYLQMNSLKPEDSAVYYCNADPRRGPGSVSSVRNNYWGQGTQVTVSS	high polyreactivity
QVQLVESGGGLVHAGGSLRLSCAASGRTFWYYAMGWYRQAPGKERELVAAITRGGRTNYADSVKGRFTISRDNAKNTVYLQMNSLKPEDTAVYYCAADYRYPAHSYGYWGQGTQVTVSS	high polyreactivity
QVQLVESGGGLVQAGGSLRLSCAASGRIFFHYAMGWYRQPPGKERELVAVISSSGGITYYADSVKGRFTISRDNAKNTVYLQMNSLKPEDTAVYYCNTVPRPFDRYGYWGQGTQVTVSS	low polyreactivity
QVQLVESGGGLVQAGGSLRLSCAASGLTFDPYAMGWYRQAPGKERELVADISDGASTYYADSVKGRFTMSRDNAKNTVYLQMNSLKPEDTAVYYCNVDVGWYAFTDAYDYWGQGTHVTVSS	low polyreactivity
QVQLLESGGGLVQAGGSLRLSCAASGSNFYVNAMGWYRQAPGKERELVAAITSTGTTHYADSVKGRFTISRDNAKNTDYLHMNSLKPEDTAVYYCAAYSRYQSRRYYYWGQGTQVTVSS	high polyreactivity
QVQLVESGGRLVQAGGSLRLSCAASGRTFRGYAMGWYRQAPGKEREWVAAISSGGSTYYADSVKGRFTISRDNAKNTVYFQMNSLKPEDTAVSYCDRAVGNYRTLEFDYWGQGTQVTVSS	low polyreactivity
QVQLVESGGGLVQAGGSLRLRCAASGIIFSYYAMGLSRQAPGKERELFAAISSSGSTNYADSVKGRFTISRDNAKNTVYLQMNSLKPEDTAVYYCNAGYGRRVYVYSFKLRYNYWGQGTQVTVSS	high polyreactivity
QVQLVESGGGLVQAGGSLRLSCAASGSIFRRKAMGWYRQAPGKERELVAAIRRGGSTNYADSVKGRFTISRDNAKNTVYLQMNSLKPEDTAVYYCAARGGSSGFYYWGQGTQVTVSS	high polyreactivity
QVQLVESGGGLVQAGGSLRLSCAASGSTFLNYAMGWYRQAPGKERELVAAITGSGGRTYYADSVKGRFTISRDNAKNTVYLQMNSLKPEDTAVYYCAASATYDPHDYWGQGTQVTVSS	high polyreactivity
QVQLVESGGGLVQAGGSLRLSCAASGRTFDFYAKGWYRQAPGKERELVAAITFSTGSTTYADSVKGRFTISRDNAKNTVYLQMNSLKPEDTAVYYCAADGDGWWWSYVDRYDYWGQGTQVTVSS	low polyreactivity
QVQLVESGGGLVQAGGSLRLSCAASGSISADYVMGWYRQAPGKDRELVAAISVSAGTTYYADSVKGRFTISRDNAKNTVYLQMNSLKPEDTAVYYCAATDSYYWLYYYGYSPGNDYWGQGTQVTVSS	low polyreactivity
QVQLVESGGGLVQAGGSLRLSCAASGSIFTVYAMGWYRQAPGKERELVAVINYRGGNTYYADSVKGRFTISRDNAKNTVYLQMNSLKPEDTAVYNCATEVSWHWYQLSVPRMDYWGQGTQVTVSS	low polyreactivity
QVQLVEAGGGLVQAGGSLRLSCAASGYIFFFYAMGWYRQAPGKERELVASITYRGGSTYYADSVKGRFTISRDNAKNTVYLQMNSLIPEDTAVYYCNVDGGGPLGPQGFPFDYWGQGTQVTVSS	low polyreactivity
